The results in this text go back to paper PMC11594144.

In general, stoichiometry N refers to a count of units in the complex or per binding partner.

The target of assay [1] is Vip3Aa64 protoxin, wild type (Bacillus thuringiensis). The assay is described as follows: mass photometry.
For assay [2] the target is unchanged. The assay is described as follows: AUC.

As to “Vip3Aa64 protoxin, wild type (natural protein)”, the stoichiometry N in assay [1] and in assay [2] was 4 each time.
